The results in this text go back to paper PMC7565984, “A Phosphorylation-Induced Switch in the Nuclear Localization Sequence of the Intrinsically Disordered NUPR1 Hampers Binding to Importin” (Biomolecules, 2020).

[ ]: non-standard residue; d: D form. pT = C[C@@H](OP(=O)(O)O)[C@H](N)C(=O)O

Experiment [1] addresses T1, human importin α3 (intact, with the IBB domain) (human, UniProt O00629 1-521).
T1 construct: human importin α3 (KPNA4), intact protein with the IBB domain; codon-optimized synthetic DNA in the vector pHTP1; also called Impα3; KPNA4; source: E. coli BL21 (DE3), purified (as for ΔImpα3)
T1 sequence (looked up): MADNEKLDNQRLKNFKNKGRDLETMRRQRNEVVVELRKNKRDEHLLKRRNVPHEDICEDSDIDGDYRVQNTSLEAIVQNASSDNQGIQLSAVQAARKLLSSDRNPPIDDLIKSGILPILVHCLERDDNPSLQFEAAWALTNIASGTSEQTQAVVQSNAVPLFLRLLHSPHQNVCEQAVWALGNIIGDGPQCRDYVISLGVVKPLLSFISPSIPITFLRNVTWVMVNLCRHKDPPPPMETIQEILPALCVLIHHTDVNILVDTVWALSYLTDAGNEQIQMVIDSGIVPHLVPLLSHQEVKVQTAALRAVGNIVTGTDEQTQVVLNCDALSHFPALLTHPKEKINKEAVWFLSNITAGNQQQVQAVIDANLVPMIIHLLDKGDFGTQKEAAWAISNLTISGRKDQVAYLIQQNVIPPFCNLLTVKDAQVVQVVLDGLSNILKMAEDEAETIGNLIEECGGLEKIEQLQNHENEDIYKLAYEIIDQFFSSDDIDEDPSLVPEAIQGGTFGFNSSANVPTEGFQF
Briefly: ITC; Impα3 or ΔImpα3 (10–20 μM) in the cell, NLS-NUPR1 peptide (150–300 μM) in the syringe; Tris 50 mM, pH 8; 298 K; single ligand binding site (1:1) model, n gives the fraction of binding-competent protein. The conditions noted are these: both partners purified.

For experiment [2], the target named is T2, truncated importin α3 without the IBB domain (residues 64-521) (human, UniProt O00629 64-521).
T2 construct: human importin α3 (KPNA4) without the IBB domain, residues 64-521; also called ΔImpα3; ΔImportin
T2 sequence (looked up): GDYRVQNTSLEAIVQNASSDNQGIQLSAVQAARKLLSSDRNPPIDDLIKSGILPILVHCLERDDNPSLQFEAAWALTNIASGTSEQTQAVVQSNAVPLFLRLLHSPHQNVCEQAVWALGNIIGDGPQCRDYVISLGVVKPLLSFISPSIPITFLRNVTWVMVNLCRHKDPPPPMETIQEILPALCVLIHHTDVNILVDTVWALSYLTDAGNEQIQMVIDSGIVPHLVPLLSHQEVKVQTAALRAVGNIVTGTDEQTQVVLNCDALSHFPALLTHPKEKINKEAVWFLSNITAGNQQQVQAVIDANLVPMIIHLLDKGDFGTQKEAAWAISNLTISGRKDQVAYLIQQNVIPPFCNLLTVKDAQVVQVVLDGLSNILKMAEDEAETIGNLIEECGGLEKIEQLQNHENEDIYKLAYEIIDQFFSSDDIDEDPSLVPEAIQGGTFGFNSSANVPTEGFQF
The description is as above. Particulars: both partners purified.

B1: wild-type NLS-NUPR1 peptide (residues 54-74 of NUPR1 with an added N-terminal Tyr) (peptide)
peptide: Ac-YTNRPSPGGHERKLVTKLQNSE-NH2
notes: tyrosine introduced at the N terminus for absorbance measurements; not a residue of NUPR1; The added Tyr stands where NUPR1 has residue 53; also called wt; wt peptide; source: synthetic peptide (NZYtech, purity 95%)
For the molecule B1, in experiment [1], the Kd came to 1.7 µM, the dH came to 0.8 kcal/mol and the “stoichiometry N” value is 0.9. In addition, in experiment [2], the Kd is 0.95 µM, the dH was -3.7 kcal/mol and the “stoichiometry N” value amounted to 1.

B2: NLS-NUPR1 peptide T68E (phospho-mimetic) (peptide)
peptide: Ac-YTNRPSPGGHERKLVEKLQNSE-NH2
notes: tyrosine introduced at the N terminus for absorbance measurements; not a residue of NUPR1; also called T68E peptide; Thr68Glu; source: synthetic peptide (NZYtech, purity 95%)
Consider B2, for which the results for the equilibrium dissociation constant (Kd) in experiment [1] and in experiment [2] were 22 µM and 12 µM, respectively. In addition, the dH in experiment [1] was -11.1 kcal/mol; in experiment [2], -17.5 kcal/mol.

B3: NLS-NUPR1 peptide K69A (peptide)
peptide: Ac-YTNRPSPGGHERKLVTALQNSE-NH2
notes: tyrosine introduced at the N terminus for absorbance measurements; not a residue of NUPR1; also called K69A peptide; Lys69Ala; source: synthetic peptide (NZYtech, purity 95%)
As for B3, in experiment [1], binding was put at a Kd of 11 µM, the dH was -10.8 kcal/mol and the “stoichiometry N” value came to 1.3. In addition, in experiment [2], the affinity, expressed as Kd, was 7.6 µM; the dH was -21.3 kcal/mol; the “stoichiometry N” value was 1.4.

B4: NLS-NUPR1 peptide T68EK69A (peptide)
peptide: Ac-YTNRPSPGGHERKLVEALQNSE-NH2
notes: tyrosine introduced at the N terminus for absorbance measurements; not a residue of NUPR1; also called T68EK69A peptide; source: synthetic peptide (NZYtech, purity 95%)
In experiment [1], B4 came in with a Kd of 17 µM and a dH of -7.5 kcal/mol. Moreover, in experiment [2], binding was characterised by a dissociation constant (Kd) of 17 µM and the dH was -21.2 kcal/mol.

B5: NLS-NUPR1 peptide K65AT68EK69A (peptide)
peptide: Ac-YTNRPSPGGHERALVEALQNSE-NH2
notes: tyrosine introduced at the N terminus for absorbance measurements; not a residue of NUPR1; also called K65AT68EK69A peptide; triple mutant; source: synthetic peptide (NZYtech, purity 95%)
The molecule B5 displayed a dH in experiment [1] of -16.3 kcal/mol. In experiment [2], this molecule gave a Kd of 24 µM and a dH of -28.5 kcal/mol.

B6: NLS-NUPR1 peptide K65A (peptide)
peptide: Ac-YTNRPSPGGHERALVTKLQNSE-NH2
notes: tyrosine introduced at the N terminus for absorbance measurements; not a residue of NUPR1; also called K65A peptide; Lys65Ala; source: synthetic peptide (NZYtech, purity 95%)
In the case of B6, in experiment [1], binding was put at a Kd of 3.9 µM, the dH is -2.8 kcal/mol and the “stoichiometry N” value was determined as 1.4. Further, in experiment [2], binding was put at a Kd of 2.7 µM, the dH is -10.2 kcal/mol and the “stoichiometry N” value came out at 1.4.

B7: NLS-NUPR1 peptide K65AT68E (peptide)
peptide: Ac-YTNRPSPGGHERALVEKLQNSE-NH2
notes: tyrosine introduced at the N terminus for absorbance measurements; not a residue of NUPR1; also called K65AT68E peptide; source: synthetic peptide (NZYtech, purity 95%)
Take B7: in experiment [1], binding was characterised by a dissociation constant (Kd) of 21 µM and the dH was -7.8 kcal/mol. In experiment [2], this molecule yielded a Kd of 14 µM and a dH of -17.9 kcal/mol.

B8: NLS-NUPR1 peptide phosphorylated at Thr68 (peptide)
peptide: Ac-YTNRPSPGGHERKLV[pT]KLQNSE-NH2
SMILES: CC(=O)N[C@@H](Cc1ccc(O)cc1)C(=O)N[C@H](C(=O)N[C@@H](CC(N)=O)C(=O)N[C@@H](CCCNC(=N)N)C(=O)N1CCC[C@H]1C(=O)N[C@@H](CO)C(=O)N1CCC[C@H]1C(=O)NCC(=O)NCC(=O)N[C@@H](Cc1c[nH]cn1)C(=O)N[C@@H](CCC(=O)O)C(=O)N[C@@H](CCCNC(=N)N)C(=O)N[C@@H](CCCCN)C(=O)N[C@@H](CC(C)C)C(=O)N[C@H](C(=O)N[C@H](C(=O)N[C@@H](CCCCN)C(=O)N[C@@H](CC(C)C)C(=O)N[C@@H](CCC(N)=O)C(=O)N[C@@H](CC(N)=O)C(=O)N[C@@H](CO)C(=O)N[C@@H](CCC(=O)O)C(N)=O)[C@@H](C)OP(=O)(O)O)C(C)C)[C@@H](C)O
notes: tyrosine introduced at the N terminus for absorbance measurements; not a residue of NUPR1; Thr68 is printed as pT (phospho-threonine); also called pT68; pT68 peptide; source: synthetic peptide (NZYtech, purity 95%)
Turning to B8, in experiment [1], binding was put at a Kd of 27 µM and the dH was -14.8 kcal/mol. Further, in experiment [2], the Kd was 29 µM and the dH was -28.2 kcal/mol.
